Columns and labels:
Assay in all cases: EMSA; EMSA: 10 mM Tris-HCl pH 7.5, 50 mM NaCl, 0.5% NP-40, 4% glycerol, 1 mM MgCl2, 0.5 mM EDTA, 1 mM DTT, 20 min room temperature, 4 pmol oligo in 20 uL, gel at 4 C; NMR: 50 mM sodium phosphate pH 7.4, 1 mM DTT, 50 uM ZnCl2, 300 uM protein
A3G R215E = A3G R215E (human, UniProt Q9HC16 1-384, R215E); conditions: protein: recombinant; tags: C-terminal Strep; label: 5' Alexa488; single strand
A3G R213E/R215E = A3G R213E/R215E (human, UniProt Q9HC16 1-384, R213E;R215E); conditions: protein: recombinant; tags: C-terminal Strep; label: 5' Alexa488; single strand
A3G R313E/R320E = A3G R313E/R320E (human, UniProt Q9HC16 1-384, R313E;R320E); conditions: protein: recombinant; tags: C-terminal Strep; label: 5' Alexa488; single strand
A3G R313E = A3G R313E (human, UniProt Q9HC16 1-384, R313E); conditions: protein: recombinant; tags: C-terminal Strep; label: 5' Alexa488; single strand
A3G-S wild type = A3G-S wild type (human, UniProt Q9HC16 1-384); conditions: protein: recombinant; tags: C-terminal Strep (STP cleaved by TEV); label: 5' Alexa488; single strand
A3G E67Q = A3G E67Q (human, UniProt Q9HC16 1-384, E67Q); conditions: protein: recombinant; tags: C-terminal Strep; label: 5' Alexa488; single strand
A3G E259Q = A3G E259Q (human, UniProt Q9HC16 1-384, E259Q); conditions: protein: recombinant; tags: C-terminal Strep; label: 5' Alexa488; single strand
A3G R374E/R376E = A3G R374E/R376E (human, UniProt Q9HC16 1-384, R374E;R376E); conditions: protein: recombinant; tags: C-terminal Strep; label: 5' Alexa488; single strand

Measured: binding result

A3G-S wild type, sequence (Q9HC16 whole entry): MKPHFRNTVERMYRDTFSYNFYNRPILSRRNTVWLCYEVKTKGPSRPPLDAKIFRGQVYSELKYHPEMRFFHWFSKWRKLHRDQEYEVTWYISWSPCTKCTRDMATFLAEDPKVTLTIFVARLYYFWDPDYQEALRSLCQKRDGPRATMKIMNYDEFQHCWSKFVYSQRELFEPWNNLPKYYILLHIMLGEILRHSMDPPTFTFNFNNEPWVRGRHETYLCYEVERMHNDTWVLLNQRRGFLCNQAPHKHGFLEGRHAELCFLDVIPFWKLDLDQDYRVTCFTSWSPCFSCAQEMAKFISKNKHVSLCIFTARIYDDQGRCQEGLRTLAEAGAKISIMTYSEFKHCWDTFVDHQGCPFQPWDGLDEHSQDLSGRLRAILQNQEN
A3G R213E/R215E, sequence (Q9HC16 whole entry R213E/R215E): as the sequence (Q9HC16 whole entry) above, with R213E, R215E counted along it
A3G R313E/R320E, sequence (Q9HC16 whole entry R313E/R320E): as the sequence (Q9HC16 whole entry) above, with R313E, R320E counted along it
A3G E67Q, sequence (Q9HC16 whole entry E67Q): as the sequence (Q9HC16 whole entry) above, with E67Q counted along it
A3G R374E/R376E, sequence (Q9HC16 whole entry R374E/R376E): as the sequence (Q9HC16 whole entry) above, with R374E, R376E counted along it
A3G R215E, sequence (Q9HC16 whole entry R215E): as the sequence (Q9HC16 whole entry) above, with R215E counted along it
A3G R313E, sequence (Q9HC16 whole entry R313E): as the sequence (Q9HC16 whole entry) above, with R313E counted along it
A3G E259Q, sequence (Q9HC16 whole entry E259Q): as the sequence (Q9HC16 whole entry) above, with E259Q counted along it

B1: Alexa488 69-mer (ssDNA)
DNA: GAAGAGGAAGGGAAGAAAGAGAAAGGGAGACCCAAAGAGGAAAGGTGAGGAGGTTAATTTGTGTAAATA
binds: all assays above

Source: PMC4009770, “A Comparison of Two Single-Stranded DNA Binding Models by Mutational Analysis of APOBEC3G”
